# Results taken from PMC4780765, “Role of Interaction and Nucleoside Diphosphate Kinase B in Regulation of the Cystic Fibrosis Transmembrane Conductance Regulator Function by cAMP-Dependent Protein Kinase A” (PLoS ONE, 2016).
# Assays:
# [1] = biological target: T1, cystic fibrosis transmembrane conductance regulator (human (endogenous in 16HBE14o-), UniProt P13569 1-1480); assay: far-Western, overlay or dot blot; blot of a CFTR immunoprecipitate or of 16HBE14o- membrane proteins, 100 μg, overlaid with 1 μg recombinant NDPK-B without or with cAMP or 8-Br-cAMP (100 μM); probed for NDPK-B; conditions: one partner purified
# T1 construct: CFTR, endogenous in the wild type human bronchial epithelial cell line 16HBE14o-; band at 175 kDa; also called CFTR; ABCC7; source: endogenous, 16HBE14o- cells (membrane fraction, lysates, immunoprecipitates)
# [2] = biological target: T1, cystic fibrosis transmembrane …; assay: co-IP; CFTR or NDPK-B immunoprecipitates from 16HBE14o- membranes; cells untreated, treated with FSK (10 μM)/IBMX (100 μM) for 30 min, or with PKI (100 nM) or H-89 (1 μM) for 5 min before FSK/IBMX; conditions: partners not purified
# [3] = biological target: T1, cystic fibrosis transmembrane …; assay: far-Western, overlay or dot blot; blot of SDS-PAGE-separated 16HBE14o- membrane proteins (100 μg) overlaid with 16HBE14o- cytosol proteins (0.5 mg) in TBS with 5% milk, 60 min at room temperature, without or with cAMP, 8-Br-cAMP or dioctanoyl-cAMP (100 μM); probed for NDPK-B; conditions: partners not purified
# T1 sequence (P13569 whole entry): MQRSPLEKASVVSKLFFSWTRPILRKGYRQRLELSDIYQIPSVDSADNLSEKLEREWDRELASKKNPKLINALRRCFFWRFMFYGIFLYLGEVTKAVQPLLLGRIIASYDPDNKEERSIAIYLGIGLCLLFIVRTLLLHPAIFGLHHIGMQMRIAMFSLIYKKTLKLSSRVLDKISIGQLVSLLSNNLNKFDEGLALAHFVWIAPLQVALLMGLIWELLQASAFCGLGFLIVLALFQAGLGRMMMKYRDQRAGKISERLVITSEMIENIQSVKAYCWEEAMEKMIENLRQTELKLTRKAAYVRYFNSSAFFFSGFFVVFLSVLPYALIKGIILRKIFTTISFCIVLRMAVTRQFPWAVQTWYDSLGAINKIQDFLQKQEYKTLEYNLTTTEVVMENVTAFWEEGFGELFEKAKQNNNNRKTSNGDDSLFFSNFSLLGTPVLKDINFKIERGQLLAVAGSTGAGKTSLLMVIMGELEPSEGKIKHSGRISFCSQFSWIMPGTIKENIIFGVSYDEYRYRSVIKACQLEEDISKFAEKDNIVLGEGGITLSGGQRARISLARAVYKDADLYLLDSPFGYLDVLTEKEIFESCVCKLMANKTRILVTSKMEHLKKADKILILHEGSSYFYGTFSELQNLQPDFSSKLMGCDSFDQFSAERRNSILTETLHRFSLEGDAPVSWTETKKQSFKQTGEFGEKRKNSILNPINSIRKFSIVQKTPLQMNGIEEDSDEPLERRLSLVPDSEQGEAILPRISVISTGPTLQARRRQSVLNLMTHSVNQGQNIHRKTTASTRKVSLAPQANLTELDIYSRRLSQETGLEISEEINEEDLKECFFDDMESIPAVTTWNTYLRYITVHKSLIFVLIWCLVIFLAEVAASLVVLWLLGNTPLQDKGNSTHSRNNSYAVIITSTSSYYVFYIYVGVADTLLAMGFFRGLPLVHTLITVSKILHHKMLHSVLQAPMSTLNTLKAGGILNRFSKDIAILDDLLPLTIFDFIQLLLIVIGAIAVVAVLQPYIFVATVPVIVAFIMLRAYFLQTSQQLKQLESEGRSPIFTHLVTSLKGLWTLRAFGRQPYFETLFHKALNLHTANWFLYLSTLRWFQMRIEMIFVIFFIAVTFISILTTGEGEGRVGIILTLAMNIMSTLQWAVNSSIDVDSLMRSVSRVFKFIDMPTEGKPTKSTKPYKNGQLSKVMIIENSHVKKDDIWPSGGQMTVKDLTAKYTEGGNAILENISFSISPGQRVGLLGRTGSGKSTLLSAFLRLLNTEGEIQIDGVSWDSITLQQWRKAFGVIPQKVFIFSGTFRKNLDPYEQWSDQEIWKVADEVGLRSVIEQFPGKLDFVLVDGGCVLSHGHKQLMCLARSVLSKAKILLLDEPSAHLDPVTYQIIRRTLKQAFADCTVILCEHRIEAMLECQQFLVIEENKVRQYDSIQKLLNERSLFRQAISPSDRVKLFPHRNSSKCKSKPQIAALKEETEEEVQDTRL
Binder,fold increase of NDPK-B staining at 175 kDa with 8-Br-cAMP (100 μM) over overlay without cAMP [1] [fold],fold increase of co-immunoprecipitation with FSK/IBMX over untreated cells [2] [fold],fold increase of NDPK-B staining at 175 kDa with dioctanoyl cAMP (100 μM) over overlay without cAMP [3] [fold]
"human recombinant nucleoside diphosphate kinase B isoform (natural protein, human recombinant nucleoside diphosphate kinase B (NDPK-B, NM23-H2); 16 kDa on the gel; also called NDPK-B; purified NDPK-B; source: recombinant, purified; prepared and provided by Professor Ioan Lascu) ANLERTFIAIKPDGVQRGLVGEIIKRFEQKGFRLVAMKFLRASEEHLKQHYIDLKDRPFFPGLVKYMNSGPVVAMVWEGLNVVKTGRVMLGETNPADSKPGTIRGDFCIQVGRNIIHGSDSVKSAEKEISLWFKPEELVDYKSCAHDWVYE",20,–,–
"nucleoside diphosphate kinase B (natural protein, human (endogenous in 16HBE14o-), UniProt P22392 1-152, looked up, nucleoside diphosphate kinase B (NDPK-B, NM23-H2), endogenous in the human bronchial epithelial cell line 16HBE14o-; also called NDPK-B; NDPK B; source: endogenous, 16HBE14o- cells (membrane and cytosol fractions, lysates)) MANLERTFIAIKPDGVQRGLVGEIIKRFEQKGFRLVAMKFLRASEEHLKQHYIDLKDRPFFPGLVKYMNSGPVVAMVWEGLNVVKTGRVMLGETNPADSKPGTIRGDFCIQVGRNIIHGSDSVKSAEKEISLWFKPEELVDYKSCAHDWVYE",–,3,20
